One test concerns the target co-activator AIB/ACTR (Homo sapiens, UniProt Q9Y6Q9). Put plainly: GST-protein-interaction test. Conditions: in vitro. The format is binding.
The target of another test is T1, estrogen receptors alpha (Homo sapiens, UniProt P03372).
T1 construct: made in house; host or cells: in vitro translation, 35S-methionine labelled
T1 sequence (P03372 1-595): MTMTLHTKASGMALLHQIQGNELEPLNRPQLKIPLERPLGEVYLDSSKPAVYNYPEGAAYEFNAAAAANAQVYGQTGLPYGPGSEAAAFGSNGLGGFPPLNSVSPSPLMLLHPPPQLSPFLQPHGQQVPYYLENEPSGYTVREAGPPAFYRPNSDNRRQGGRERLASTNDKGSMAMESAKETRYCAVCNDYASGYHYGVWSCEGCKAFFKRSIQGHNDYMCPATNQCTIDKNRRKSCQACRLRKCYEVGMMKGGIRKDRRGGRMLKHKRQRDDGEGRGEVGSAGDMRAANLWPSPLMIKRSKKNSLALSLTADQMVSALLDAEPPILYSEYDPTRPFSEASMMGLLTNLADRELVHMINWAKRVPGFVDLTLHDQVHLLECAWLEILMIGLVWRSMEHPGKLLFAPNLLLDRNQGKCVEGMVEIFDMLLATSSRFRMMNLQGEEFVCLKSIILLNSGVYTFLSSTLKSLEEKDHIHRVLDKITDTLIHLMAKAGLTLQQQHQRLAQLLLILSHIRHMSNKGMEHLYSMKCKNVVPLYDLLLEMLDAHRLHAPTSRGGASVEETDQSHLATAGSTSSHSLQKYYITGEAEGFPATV
Put plainly: GST-protein-interaction test. The format is binding. Conditions: in vitro. As for the experimental part:
To measure the interaction between SLIM3 and the nuclear receptors in vitro, the GST-Slim3 fusion protein was immobilized by means of glutathione-sepharose and incubated with several in vitro-translated ^35S-methionine-labeled nuclear receptors. The complete human androgen receptor binds to GST-Slim3. This in vitro interaction is not ligand-dependent under standard conditions. The complete human androgen receptor binds specifically to GST-Slim3, but not to the GST protein alone. To safeguard the specificity between the human androgen receptor and SLIM3, another GST-protein-interaction test was carried out (GST-protein-interaction assay). This test is described in E. PFITZNER et al. (1995) Functional Antagonism Between the Retinoid Acid Receptor and the Viral Transactivator BZLF1 is Mediated by Protein-Protein Interactions. Proc Natl Acad Sci USA Vol. 92, pp. 12265-12269.

Experimental findings from patent publication US20020004209A1, “Use of SLIM3 for binding to molecules” (Schering Aktiengesellschaft Patents, priority 1999, published 2002) are described below.

Sequence of co-activator AIB/ACTR (Q9Y6Q9 whole entry): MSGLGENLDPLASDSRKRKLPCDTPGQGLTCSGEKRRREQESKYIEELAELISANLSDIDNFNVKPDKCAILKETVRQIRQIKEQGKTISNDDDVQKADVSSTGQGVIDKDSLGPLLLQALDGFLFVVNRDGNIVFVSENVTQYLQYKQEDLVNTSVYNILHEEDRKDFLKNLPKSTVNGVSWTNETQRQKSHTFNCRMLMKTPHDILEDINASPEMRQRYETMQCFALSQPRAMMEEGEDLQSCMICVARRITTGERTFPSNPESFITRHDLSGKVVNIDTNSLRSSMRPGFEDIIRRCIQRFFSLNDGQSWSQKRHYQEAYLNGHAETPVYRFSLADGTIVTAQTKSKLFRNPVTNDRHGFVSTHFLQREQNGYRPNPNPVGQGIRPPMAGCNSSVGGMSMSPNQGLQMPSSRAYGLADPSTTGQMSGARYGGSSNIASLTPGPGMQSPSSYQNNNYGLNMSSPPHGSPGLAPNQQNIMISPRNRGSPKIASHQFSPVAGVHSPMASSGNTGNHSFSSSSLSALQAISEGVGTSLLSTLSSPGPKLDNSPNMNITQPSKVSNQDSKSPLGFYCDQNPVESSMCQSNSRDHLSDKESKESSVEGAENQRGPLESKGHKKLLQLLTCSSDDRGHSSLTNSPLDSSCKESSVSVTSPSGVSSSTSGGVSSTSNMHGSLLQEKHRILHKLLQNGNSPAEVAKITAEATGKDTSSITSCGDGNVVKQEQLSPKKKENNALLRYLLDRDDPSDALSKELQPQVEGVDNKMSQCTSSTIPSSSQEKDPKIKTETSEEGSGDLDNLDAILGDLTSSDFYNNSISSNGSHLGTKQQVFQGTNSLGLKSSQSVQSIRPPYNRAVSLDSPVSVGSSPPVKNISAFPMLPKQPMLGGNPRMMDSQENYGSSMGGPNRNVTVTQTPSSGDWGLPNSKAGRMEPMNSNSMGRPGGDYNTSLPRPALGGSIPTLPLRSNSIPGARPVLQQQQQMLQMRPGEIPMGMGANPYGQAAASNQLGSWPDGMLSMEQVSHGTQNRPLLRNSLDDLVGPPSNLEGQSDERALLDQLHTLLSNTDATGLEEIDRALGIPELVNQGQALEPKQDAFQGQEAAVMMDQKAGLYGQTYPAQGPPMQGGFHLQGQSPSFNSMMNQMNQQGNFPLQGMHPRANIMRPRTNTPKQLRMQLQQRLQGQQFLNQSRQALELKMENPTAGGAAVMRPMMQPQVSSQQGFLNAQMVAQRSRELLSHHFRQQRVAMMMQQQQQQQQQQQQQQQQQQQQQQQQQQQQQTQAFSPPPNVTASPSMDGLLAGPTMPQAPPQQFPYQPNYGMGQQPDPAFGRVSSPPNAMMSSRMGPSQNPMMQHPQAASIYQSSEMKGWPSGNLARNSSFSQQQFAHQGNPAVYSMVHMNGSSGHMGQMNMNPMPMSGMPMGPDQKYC
Sequence of co-activator AIB/ACTR (Q14192 whole entry partner): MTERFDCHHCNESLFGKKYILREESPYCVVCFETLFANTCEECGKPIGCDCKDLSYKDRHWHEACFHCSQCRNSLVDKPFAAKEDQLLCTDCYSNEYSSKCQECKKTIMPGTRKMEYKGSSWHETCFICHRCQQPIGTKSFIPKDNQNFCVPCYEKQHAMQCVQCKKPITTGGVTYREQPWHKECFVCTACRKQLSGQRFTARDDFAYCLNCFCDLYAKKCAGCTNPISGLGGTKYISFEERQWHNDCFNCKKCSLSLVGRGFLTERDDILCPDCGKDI

Turning to “SLIM3: LIM-domain protein of 279 amino acids, co-activator for nuclear receptors AR and ERβ”, the interaction with co-activator entry in the test with co-activator AIB/ACTR is “interacts”. In addition, the “bond to SLIM3” value with estrogen receptors alpha is “no bond”.
